Source: paper PMC3605307 (2013)

B1: Recombinant UL141 ectodomain (soluble, released from the Fc fusion) (domain or fragment)
chain: SFPFATADIAEKMWAENYETTSPAPVLVAEGEQVTIPCTVMTHSWPMVSIRARFCRSHDGSDELILDAVKGHRLMNGLQYRLPYATWNFSQLHLGQIFSLTFNVSTDTAGMYECVLRNYSHGLIMQRFVILTQLETLSRPDEPCCTPALGRYSLGDQIWSPTPWRLRNHDCGMYRGFQRNYFYIGRADAEDCWKPACPDEEPDRCWTVIQRYRLPGDCYRSQPHPPKFLPVTPAPPADIDTGMSPWATRG
B2: TRAIL (TNF-related apoptosis inducing ligand) ectodomain (ligand)
chain: TNELKQMQDKYSKSGIACFLKEDDSYWDPNDEESMNSPCWQVKWQLRQLVRKMILRTSEETISTVQEKQQNISPLVRERGPQRVAAHITGTRGRSNTLSSPNSKNEKALGRKINSWESSRSGHSFLSNLHLRNGELVIHEKGFYYIYSQTYFRFQEEIKENTKNDKQMVQYIYKYTSYPDPILLMKSARNSCWSKDAEYGLYSIYQGGIFELKENDRIFVSVTNEHLIDMDHEASFFGAFLVG

Tests used:
Test in all cases: SPR
[1] = molecular target: Human TRAIL-R2-Fc D109A together with E78A (human, UniProt O14763 58-184, E78A | D109A)
Chain of Human TRAIL-R2-Fc D109A together with E78A (O14763 58-184 E78A/D109A): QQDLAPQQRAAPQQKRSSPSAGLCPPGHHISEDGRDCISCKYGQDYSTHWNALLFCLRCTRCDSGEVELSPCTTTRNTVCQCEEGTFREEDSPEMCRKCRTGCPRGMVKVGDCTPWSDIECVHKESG

[2] = molecular target: Human TRAIL-R2-Fc F112A (human, UniProt O14763 58-184, F112A)
Chain of Human TRAIL-R2-Fc F112A (O14763 58-184 F112A): as the sequence (O14763 58-184 E78A/D109A) above, with A21E, A52D, F55A counted along it

[3] = molecular target: Human TRAIL-R2-Fc triple mutation V167A-W173A-V179A (human, UniProt O14763 58-184, V167A | W173A | V179A)
Chain of Human TRAIL-R2-Fc triple mutation V167A-W173A-V179A (O14763 58-184 V167A/W173A/V179A): as the sequence (O14763 58-184 E78A/D109A) above, with A21E, A52D, V110A, W116A, V122A counted along it

[4] = molecular target: Human TRAIL-R2-Fc V167A (human, UniProt O14763 58-184, V167A)
Chain of Human TRAIL-R2-Fc V167A (O14763 58-184 V167A): as the sequence (O14763 58-184 E78A/D109A) above, with A21E, A52D, V110A counted along it

Binder	Kd [1] [nM]	Kd [2] [nM]	Kd [3] [nM]	Kd [4] [nM]
B1	60			
B2	4	4	4	4
